To fix the notation:
B1: Lysozyme C, P61626 (parent)
chain: MKALIVLGLVLLSVTVQGKVFERCELARTLKRLGMDGYRGISLANWMCLAKWESGYNTRATNYNAGDRSTDYGIFQINSRYWCNDGKTPGAVNACHLSCSALLQDNIADAVACAKRVVRDPQGIRAWVAWRNRCQNRDVRQYVQGCGV

In this data set the parent is B1. The conditions noted are these: Homo sapiens, pH 3, Thermal, DSC, glycine-HCl 0.05 M, reversible: yes, structure 1LZ1, whole UniProt chain shown; for ddG of mutation (higher = less stable) / unfolding enthalpy (calorimetric) / unfolding free energy: 57 °C.

The term Tm denotes the temperature at the midpoint of the melting transition.

For the variant MKALIVLGLVLLSVTVQGKVFERCELARTLKRLGMDGYRGISLANWMCLAKWESGYNTRATNYNAGDRSTDYGIFQINSRYWCNDGKTPGAVNAAHLSCSALLQDNIADAVACAKRVVRDPQGIRAWVAWRNRCQNRDVRQYVQGCGV [C95A], the “ddG of mutation (higher = less stable)” value was 4.6 kcal/mol, the “unfolding enthalpy (calorimetric)” value worked out at 94.8 kcal/mol and the unfolding free energy is 0 kcal/mol.

In the case of MKALIVLGLVLLSVTVQGKVFERCELARTLKRLGMDGYRGISLANWMCLAKWESGYNTRATNYNAGDRSTDYGIFQINSRYWCNDGKTPGAVNAAHLSCSALLQDNIADAVAAAKRVVRDPQGIRAWVAWRNRCQNRDVRQYVQGCGV [C95A C113A], the “ddG of mutation (higher = less stable)” value amounted to 4.6 kcal/mol, the “unfolding enthalpy (calorimetric)” value was determined as 90.8 kcal/mol, the unfolding free energy is 0 kcal/mol and the Tm was determined as 56.9 °C. In addition, the “change of melting temperature, mutant - wild type (higher = more stable)” value is -14.5 °C.

The record behind these values is FireProtDB (doi:10.1021/bi00150a028).
